Laboratory results reported in the supplement of paper PMC10567573.
± gives the standard deviation.

Assay: protein stability index of a GFP-peptide fusion (GPS, HEK-293T) (PSI 1-6); higher = more stable
Settings: c terminus: a fixed tail appended
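Further: 24-mer peptide tiles fused after GFP, lentivirally expressed, FACS-sorted into six equal bins by GFP/DsRed ratio, decoded by Illumina sequencing, PSI is the read-weighted mean bin number.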

Sequence	protein stability index (treatment: DMSO)	protein stability index (treatment: MLN4924 1 uM, 8 h)
FVGAIFNGLTLLILGVIGLFTIPL [RTN2]	2.02 ± 0.11	2.27 ± 0.42
STVKNEFSLKTFKRKSEVERAVKR [MATN2]	4.17 ± 0.14	4.39 ± 0.3
SSSSKLSRSPLKIVKKPKSMQCKV [EPB41L3]	3.54 ± 0.11	3.41 ± 0.52
AALTEALQRQAEQNPTASYYNVVL [FCHO1]	2.3 ± 0.33	2.21 ± 0.33
PQGLFVEALSVPLSLCVSSHLALP [CLPTM1]	2.96 ± 0.59	2.91 ± 0.41
MKYTSEKFLEICKLSGFMSKLVPA [TPRG1]	3.05 ± 1	2.56 ± 0.45
MWDSKKIGLRQHHCRKCGKAVCGK [WDFY2]	3.31 ± 0.15	3.58 ± 0.72
MVGLILGPFGVNHGVELHSDVIEY [PCMTD2]	3 ± 1.1	2.82 ± 0.64
DPKEDVFQQNHLFWLQNSSPSSDR [PHTF1]	4.71 ± 0.18	4.49 ± 0.19
DLETHRLPCTSRCPRPCRESAFKL [SCNN1D]	2.41 ± 0.21	2.44 ± 0.063
ELNFISVFWPQLPNGLEAAYEFAD [MMP1]	2.45 ± 0.47	2.15 ± 0.59
ERPMYGRDSAYQSITHYRPVSASR [EMD]	3.81 ± 0.26	3.76 ± 0.28
PTDRNLCHFQALGCRTTHSNQEVL [PYCR3]	2.49 ± 0.35	2.37 ± 0.22
GGIPALVKMLGSPVDSVLFYAITT [CTNNB1]	3.19 ± 0.79	3.07 ± 0.99
SHPACPLEFAYYFRPGHLLANACL [ZSWIM9]	2.81 ± 0.54	2.52 ± 0.56
DVRMGGSFRGAFSNSEKAKNIFRI [NET1]	2.32 ± 0.44	2.44 ± 0.31
TEDTPKVNADIEKVNQNQAKRCTV [NSDHL]	5.42 ± 0.23	5.38 ± 0.21
MPRAPKRQRCMPEEDLQSQSETQG [MAGEA10]	5.02 ± 0.42	5.05 ± 0.12
QAIDATVAAELLNHLLESMPLREG [HES6]	2.43 ± 0.41	2.3 ± 0.28
EPGPAAYGLKPLTPNSKYVKLNVG [KCTD13]	3.66 ± 0.11	3.62 ± 0.31
EGNQKGEQATSLAILRVIRLVRVF [KCNA1]	2.2 ± 0.37	2.28 ± 0.37
YEKTPFDQLAFIEELFSLMVVNRL [EID1]	2.68 ± 0.36	3.01 ± 0.43

Sequence	protein stability index (treatment: DMSO)	protein stability index (treatment: MLN4924 1 uM, 8 h)
RISSPQVEEGDSRFLANEVLQENY [WEE1]	4.83 ± 0.44	4.91 ± 0.13
RRERELQHAALGGTATRQNNWPPL [SCAMP3]	3.54 ± 0.16	3.82 ± 0.21
QQQRQRPPRPPPRGTPPRRHSFRK [N4BP2L1]	4.44 ± 0.16	4.75 ± 0.26
ISRLEQCGINANDVKKLEEAGFHT [RAD51]	3.58 ± 0.15	3.9 ± 0.11
VLLKKDVDAAYANKVELQAKVESM [KRT71]	3.63 ± 0.36	3.65 ± 0.36
INVNDLSFVTGSHVGELIIWDALD [WDR41]	2.22 ± 0.41	2.12 ± 0.2
VSSLISEKTNGATPLLMAARYGHL [FEM1C]	2.28 ± 0.17	2.52 ± 0.28
ETTGIQIWSEVFTVEKPGGKKVAV [ATL3]	2.79 ± 0.24	3.01 ± 0.2
RAFKIKDFANTIPGHGGIMDRFDC [CDS1]	2.41 ± 0.28	2.76 ± 0.27
TYVAKMSEPHYGHAGTVYGGVMYI [KLHL13]	3.32 ± 0.82	2.52 ± 0.45
VLFTSDACGLSDVAHVESLQEKSQ [NR2F2]	3.93 ± 0.26	4.04 ± 0.28
PSSQKALLLELKGLQEEPVEGFRV [CDC34]	3.68 ± 0.14	3.47 ± 0.14
WCDGCKNHIGMGVRYNAEKKKVGN [YJU2B]	3.67 ± 0.34	3.65 ± 0.32
LEPDEDPLCMLLLIDHLALRARNY [TCF25]	2.54 ± 0.32	2.37 ± 0.23
ESLSSQLSNLQKESRACLERIQEL [LMNB1]	4.28 ± 0.14	4.38 ± 0.13
VIDLFDEQGLSALHLAAQGRHAQT [RIPK4]	3.05 ± 0.35	2.87 ± 0.14
YSLTTSSTHKSSLCKVEIVCPPQS [RAB40A]	2.64 ± 0.19	2.64 ± 0.12
SLTAAETLALQGTQGQEKMMMMGP [ZNF232]	4.01 ± 0.18	4.14 ± 0.2
LPDVSLGRYAYVRGGGDPWTNGSG [MCOLN1]	2.51 ± 0.43	2.87 ± 0.22
YLVQGLVEECQAALQNKDTYEPFC [KCTD10]	2.32 ± 0.46	2.65 ± 0.24
PPSYGGSSRYDDYSSSRDGYGGSR [RBMX]	4.612 ± 0.036	4.66 ± 0.33
GSKCSPEDLATAYNNRGQIKYFRV [TTC32]	2.16 ± 0.21	2.13 ± 0.37

Sequence	protein stability index (treatment: DMSO)	protein stability index (treatment: MLN4924 1 uM, 8 h)
SFSLVKLVLRRQLKNKCCPPPCKF [C22orf31]	2.29 ± 0.47	2.35 ± 0.41
IHCENCKTTLGWKYEQAFESSQKY [YPEL3]	2.36 ± 0.38	2.62 ± 0.62
YVKPQSCIDIVIRHVAPIPSHYDV [MOSPD3]	2.97 ± 0.74	2.74 ± 0.85
KPISTKSQFLKHQQTHNIEKAHEC [ZNF649]	4.48 ± 0.27	4.41 ± 0.16
LQHLIGLSNLTHVLYPVPLESYED [PRAME]	2.3 ± 0.24	2.54 ± 0.12
LRRTGCAALRIANCKLFRLQLQQG [GAN]	2.33 ± 0.47	2.13 ± 0.28
FYAITTLHNLLLHQEGAKMAVRLA [CTNNB1]	3.02 ± 0.17	2.79 ± 0.15
MSTGPIAESWCYTQVKVVKFSYMW [SPOPL]	2.41 ± 0.08	3.35 ± 1.5
ERTWPPPAMSPYWRTWMTITQSWQ [C22orf15]	2.31 ± 0.58	1.94 ± 0.32
GQSDFRPKNGRHAWIWHDCHRHYH [LOXL2]	2.54 ± 0.29	3.03 ± 0.45
KNSLFPSPISSISPGLHSFTDHQR [KCNK9]	3.3 ± 0.25	3.27 ± 0.38
YGHELLINTLITSGADTAKCGIHS [ANKRD44]	2.27 ± 0.38	1.99 ± 0.2
QEVLSLRRENSTLDVECHEKEKHV [SASS6]	5.2 ± 0.38	5.52 ± 0.4
LWVPQPPPRTIKRTRRRLSRNRDP [PWWP2B]	3.44 ± 0.35	3.82 ± 0.33
AVVNELIDYGANVNQPNNNGFTPL [ANKRD44]	3.05 ± 0.2	3.21 ± 0.17
PSNARGPILSRSTSTGSAASSGSN [SPRY1]	4.96 ± 0.17	5.01 ± 0.12
QHNLRDSLENTLTESEAHYSSQLS [KRT34]	5.066 ± 0.033	4.99 ± 0.23
TPLDAFRMTSAAHYYPKLMSIMGN [GFOD1]	2.12 ± 0.33	2.06 ± 0.093
VCTKYNLRITSGVVVCQCGLSIPS [RPAIN]	2.56 ± 0.5	2.45 ± 0.55
TTFSTTSGYMEGYYTFHFLYFKDK [FBXO3]	2.97 ± 0.74	2.41 ± 0.41
QLQFLIRYHRFISFALYLAGFCMF [CDS1]	2.07 ± 0.062	2.32 ± 0.52
